Test results published in publication PMC4526367, “Weak Interactions between Salmonella enterica FlhB and Other Flagellar Export Apparatus Proteins Govern Type III Secretion Dynamics” (PLoS ONE, 2015).
Like-named read-outs stand apart in the source and are kept apart here.

What was measured:
FliK = FliK (UniProt P26416); assay: BLI
[1] = target: cytoplasmic domain of FlhA (FlhAC) (UniProt P40729); assay: BLI; FlhAC ligand on streptavidin sensors, FlhBC analyte 2, 1, 0.5, 0.25 and 0.125 uM; HBS-T, 25°C; one-state association fits, global two-state dissociation fit, steady state analysis, kobs vs [FlhBC]
[2] = target: cytoplasmic domain of FlhA (FlhAC) (UniProt P40729); assay: as above; remark: listed apart in the source
[3] = target: FlhB cytoplasmic domain (Salmonella enterica) (UniProt P40727); assay: SPR; settings: cited from earlier work
[4] = target: T1, full-length wild-type FlhB (Salmonella enterica, UniProt P40727); assay: BLI; settings: both partners purified
T1 construct: also called FlhB from pMM9; source: overproduced from pMM9, purified under nondenaturing conditions from solubilized crude membrane fractions
T1 sequence 1: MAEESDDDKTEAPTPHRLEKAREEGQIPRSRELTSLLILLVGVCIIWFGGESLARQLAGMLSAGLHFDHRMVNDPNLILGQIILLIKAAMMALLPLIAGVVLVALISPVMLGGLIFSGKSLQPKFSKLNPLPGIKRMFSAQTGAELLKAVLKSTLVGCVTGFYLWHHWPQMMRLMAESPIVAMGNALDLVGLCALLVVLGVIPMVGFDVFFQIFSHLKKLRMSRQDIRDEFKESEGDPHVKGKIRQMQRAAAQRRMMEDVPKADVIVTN
T1 sequence 2: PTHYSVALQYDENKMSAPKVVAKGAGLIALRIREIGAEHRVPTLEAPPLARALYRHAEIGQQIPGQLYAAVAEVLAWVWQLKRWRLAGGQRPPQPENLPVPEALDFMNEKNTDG

FliI [5] = target: T2, FliI (UniProt P26465 1-456, biotin by amine crosslinking (NHS-LC-LC-biotin) when used as ligand); assay: BLI; settings: both partners purified
T2 construct: source: E. coli BL21DE3(pLysS), purified (Talon IMAC, gel filtration into HBS-T)
T2 sequence: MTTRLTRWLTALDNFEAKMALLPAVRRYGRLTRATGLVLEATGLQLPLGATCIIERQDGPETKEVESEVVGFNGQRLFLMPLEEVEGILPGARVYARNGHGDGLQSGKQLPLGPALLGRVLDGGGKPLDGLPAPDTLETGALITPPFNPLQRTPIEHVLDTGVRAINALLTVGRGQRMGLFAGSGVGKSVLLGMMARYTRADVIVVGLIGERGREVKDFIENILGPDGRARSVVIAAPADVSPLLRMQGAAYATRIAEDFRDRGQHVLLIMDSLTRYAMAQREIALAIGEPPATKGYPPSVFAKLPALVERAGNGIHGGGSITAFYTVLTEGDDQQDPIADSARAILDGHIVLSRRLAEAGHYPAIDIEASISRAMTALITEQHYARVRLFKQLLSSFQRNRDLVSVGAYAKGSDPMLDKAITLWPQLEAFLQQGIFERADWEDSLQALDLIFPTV

FliI [6] = target: T2, FliI; assay: BLI; FlhBC ligand on streptavidin sensors, FliI analyte 4, 2, 1, 0.5 and 0.25 uM without ATP; HBS-T, 25°C; global one-state association-then-dissociation model; settings: both partners purified
[7] = target: the molecule itself; assay: AUC; sedimentation equilibrium, buffer with 33 mM C8E5, scans at 280 nm; fit to a single-species model

cytoplasmic domain of FlhA (FlhAC), sequence (P40729 whole entry, the tested form may be a part): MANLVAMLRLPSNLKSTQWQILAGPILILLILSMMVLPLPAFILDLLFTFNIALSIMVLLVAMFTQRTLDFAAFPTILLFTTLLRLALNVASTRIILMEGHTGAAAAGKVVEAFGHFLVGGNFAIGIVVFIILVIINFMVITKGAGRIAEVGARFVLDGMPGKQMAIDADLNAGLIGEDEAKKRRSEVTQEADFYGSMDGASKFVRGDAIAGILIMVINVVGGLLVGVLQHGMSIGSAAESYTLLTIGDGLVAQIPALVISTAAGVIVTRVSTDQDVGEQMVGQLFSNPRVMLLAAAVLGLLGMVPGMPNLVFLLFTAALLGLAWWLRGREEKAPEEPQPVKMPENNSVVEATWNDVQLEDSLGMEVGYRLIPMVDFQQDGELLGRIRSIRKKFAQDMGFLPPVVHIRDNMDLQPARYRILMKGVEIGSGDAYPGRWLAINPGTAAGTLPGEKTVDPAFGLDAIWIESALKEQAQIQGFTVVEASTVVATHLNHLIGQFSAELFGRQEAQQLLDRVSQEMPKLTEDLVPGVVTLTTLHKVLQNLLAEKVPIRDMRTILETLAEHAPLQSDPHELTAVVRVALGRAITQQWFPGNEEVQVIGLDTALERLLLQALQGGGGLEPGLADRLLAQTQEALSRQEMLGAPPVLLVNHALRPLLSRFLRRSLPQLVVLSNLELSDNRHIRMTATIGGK
FliK (UniProt P26416), sequence (P26416 whole entry, the tested form may be a part): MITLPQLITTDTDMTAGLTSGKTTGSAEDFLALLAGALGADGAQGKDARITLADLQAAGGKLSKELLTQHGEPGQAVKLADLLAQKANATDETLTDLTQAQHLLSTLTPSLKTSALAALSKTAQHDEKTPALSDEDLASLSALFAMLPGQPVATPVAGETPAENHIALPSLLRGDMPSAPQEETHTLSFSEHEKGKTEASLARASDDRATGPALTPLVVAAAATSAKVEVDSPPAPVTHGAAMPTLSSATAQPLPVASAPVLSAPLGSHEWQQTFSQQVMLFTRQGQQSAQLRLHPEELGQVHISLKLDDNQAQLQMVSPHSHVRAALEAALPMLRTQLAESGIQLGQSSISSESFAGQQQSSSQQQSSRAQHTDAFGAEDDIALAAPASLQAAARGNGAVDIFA

Q: Which results are given for “cytoplasmic domain of FlhB (FlhBC) (from UniProt P40727 212-383) (domain or fragment)”?
A: KD of the initial binding event (FliK): 8 µM; Kd (FliK): 2100 nM; k1 (observed rate constant of initial binding) at 1 uM FlhBC (FliK): 0.05 s⁻¹; k1 (observed rate constant of initial binding) at 2 uM FlhBC (FliK): 0.1 s⁻¹; k1 (observed rate constant of initial binding) at 3 uM FlhBC (FliK): 0.2 s⁻¹; k1 (observed rate constant of initial binding) at 4 uM FlhBC (FliK): 0.25 s⁻¹; k1 (observed rate constant of initial binding) at 5 uM FlhBC (FliK): 0.25 s⁻¹; k2 (dissociation of AB to the free proteins), simulation at 1 uM FlhBC (FliK): 0.44 s⁻¹; k2 (dissociation of AB to the free proteins), simulation at 2 uM FlhBC (FliK): 0.44 s⁻¹; k2 (dissociation of AB to the free proteins), simulation at 3 uM FlhBC (FliK): 0.44 s⁻¹; k2 (dissociation of AB to the free proteins), simulation at 4 uM FlhBC (FliK): 0.44 s⁻¹; k2 (dissociation of AB to the free proteins), simulation at 5 uM FlhBC (FliK): 0.44 s⁻¹; k3 (shift from AB to AB*), simulation at 1 uM FlhBC (FliK): 0.0085 s⁻¹; k3 (shift from AB to AB*), simulation at 2 uM FlhBC (FliK): 0.0085 s⁻¹; k3 (shift from AB to AB*), simulation at 3 uM FlhBC (FliK): 0.0085 s⁻¹; k3 (shift from AB to AB*), simulation at 4 uM FlhBC (FliK): 0.0085 s⁻¹; k3 (shift from AB to AB*), simulation at 5 uM FlhBC (FliK): 0.0085 s⁻¹; k4 (shift from AB* to AB), simulation at 1 uM FlhBC (FliK): 0.008 s⁻¹; k4 (shift from AB* to AB), simulation at 2 uM FlhBC (FliK): 0.008 s⁻¹; k4 (shift from AB* to AB), simulation at 3 uM FlhBC (FliK): 0.008 s⁻¹; k4 (shift from AB* to AB), simulation at 4 uM FlhBC (FliK): 0.008 s⁻¹; k4 (shift from AB* to AB), simulation at 5 uM FlhBC (FliK): 0.008 s⁻¹; koff of the initial binding event (FliK): 0.44 s⁻¹; kon of the initial binding event (FliK): 55000 M⁻¹ s⁻¹; Kd [1]: 1000 nM; koff [1]: 0.085 s⁻¹; kon [1]: 85000 M⁻¹ s⁻¹; Kd [2]: 1100 nM; koff, fast state of the global two-state dissociation fit [2]: 0.13 s⁻¹; koff, slow state of the global two-state dissociation fit [2]: 0.0047 s⁻¹

Q: Which Kd [3] does the source give for FliK (from UniProt P26416) here?
A: Its Kd is 3.2 µM.

B1: FliH (natural protein)
chain: MSNELPWQVWTPDDLAPPPETFVPVEADNVTLTEDTPEPELTAEQQLEQELAQLKIQAHEQGYNAGLAEGRQKGHAQGYQEGLAQGLEQGQAQAQTQQAPIHARMQQLVSEFQNTLDALDSVIASRLMQMALEAARQVIGQTPAVDNSALIKQIQQLLQQEPLFSGKPQLRVHPDDLQRVEEMLGATLSLHGWRLRGDPTLHHGGCKVSADEGDLDASVATRWQELCRLAAPGVL
modifications: biotin by amine crosslinking (NHS-LC-LC-biotin) when used as ligand
notes: source: E. coli BL21DE3(pLysS), purified (Talon IMAC, gel filtration into HBS-T)
Q: For B1, which “KD with the 2 μM sample included” value [4] is on record?
A: The value was 0.9 µM.

Q: And the Kd [4]?
A: The Kd was 800 nM.

B2: cytoplasmic domain of FlhB (FlhBC) (domain or fragment)
chain: QIFSHLKKLRMSRQDIRDEFKESEGDPHVKGKIRQMQRAAAQRRMMEDVPKADVIVTNPTHYSVALQYDENKMSAPKVVAKGAGLIALRIREIGAEHRVPTLEAPPLARALYRHAEIGQQIPGQLYAAVAEVLAWVWQLKRWRLAGGQRPPQPENLPVPEALDFMNEKNTDG
modifications: biotin by amine crosslinking (NHS-LC-LC-biotin) when used as ligand
notes: as for B1
Q: What does the source list for B2?
A: Kd (FliI [5]): 1100 nM; Kd (FliI [6]): 84 nM; koff (FliI [6]): 0.0015 s⁻¹; kon (FliI [6]): 18000 M⁻¹ s⁻¹

B3: full-length FlhB(N269A), uncleavable variant (natural protein)
chain: MAEESDDDKTEAPTPHRLEKAREEGQIPRSRELTSLLILLVGVCIIWFGGESLARQLAGMLSAGLHFDHRMVNDPNLILGQIILLIKAAMMALLPLIAGVVLVALISPVMLGGLIFSGKSLQPKFSKLNPLPGIKRMFSAQTGAELLKAVLKSTLVGCVTGFYLWHHWPQMMRLMAESPIVAMGNALDLVGLCALLVVLGVIPMVGFDVFFQIFSHLKKLRMSRQDIRDEFKESEGDPHVKGKIRQMQRAAAQRRMMEDVPKADVIVTAPTHYSVALQYDENKMSAPKVVAKGAGLIALRIREIGAEHRVPTLEAPPLARALYRHAEIGQQIPGQLYAAVAEVLAWVWQLKRWRLAGGQRPPQPENLPVPEALDFMNEKNTDG
Q: For B3, which “stoichiometry N” value [7] is on record?
A: Its value is 2.
